Experimental data published in the supplement of paper PMC12764529.
± gives the half width of the 95% confidence interval.

Legend:
[1] = folding stability dG unfold from trypsin proteolysis; higher = more stable
Method in brief: (§1)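 Designed mini-proteins with no cysteine and under 80 residues were kept only if AlphaFold2 dimer inter-PAE was above 15. In a PA-tagged cDNA display construct, they were digested with trypsin and chymotrypsin and then sequenced. K50 was inferred by Bayesian fitting of counts, and unfolding free energy was derived per protease or combined against a sequence-predicted unfolded-state K50 and a shared folded-state K50.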

[2] = folding stability dG unfold from chymotrypsin proteolysis; higher = more stable
Method in brief: as §1

[3] = folding stability dG unfold (combined trypsin and chymotrypsin); higher = more stable
Method in brief: as §1

## SAGGSKTIVIDPEKVVKVEVKKNENGEKEIRIVVKNKDGEEKEVTIKPGEKLELPPKVEVVVLPEKSAGGSA [r2_347_TrROS_Hall]
[1]
  folding stability dG unfold: -0.517 ± 0.28 kcal/mol
[2]
  folding stability dG unfold: 1.39 ± 0.18 kcal/mol
[3]
  folding stability dG unfold: 0.965 ± 0.19 kcal/mol

## SAGGSKTLIIKIEKIEEFYPPFNNDKIKIPVSVYDPETGEKVLSNEEVAKILEKLFPGIKIGWEEGSAGGSA [r2_27_TrMRF]
[1]
  folding stability dG unfold: 1.06 ± 0.032 kcal/mol
[2]
  folding stability dG unfold: 0.719 ± 0.036 kcal/mol
[3]
  folding stability dG unfold: 0.937 ± 0.06 kcal/mol

## SAGGSLDVKIEITPPDGSTRTLDIEVESEEEAIKIAEELQKELGEGNTLKVRITYPGPKSPVELELKSAGGS [r8_107_JUSTAS]
[1]
  folding stability dG unfold: 1.53 ± 0.04 kcal/mol
[2]
  folding stability dG unfold: 2.51 ± 0.046 kcal/mol
[3]
  folding stability dG unfold: 2.2 ± 0.065 kcal/mol

## SAGGSLEEVARALARELGLPDVEVRDIPVEVLPNGTVRIPVTIVRPEAGEPLPPLEVELAPDEPLLSAGGSA [r2_137_JUSTAS]
[1]
  folding stability dG unfold: -0.0103 ± 0.14 kcal/mol
[2]
  folding stability dG unfold: -0.236 ± 0.15 kcal/mol
[3]
  folding stability dG unfold: -0.198 ± 0.14 kcal/mol

## SAGGSLKIRTVLRLPSPDGTPYLVFSKEAVIHPVPNIVHINLLVPDKEITLTVPLNEVELLGSPEEVLSSAG [r5_15_TrMRF]
[1]
  folding stability dG unfold: 2.13 ± 0.048 kcal/mol
[2]
  folding stability dG unfold: 2.81 ± 0.029 kcal/mol
[3]
  folding stability dG unfold: 2.65 ± 0.097 kcal/mol

## SAGGSLRGVLFDPEGGRVYVLEYDPALGSFRVRPFPVPPVLPISREAAAEILRRELGLPREVVERLLASAGG [r13_824_TrMRF]
[1]
  folding stability dG unfold: 2.58 ± 0.082 kcal/mol
[2]
  folding stability dG unfold: 3.438 ± 0.033 kcal/mol
[3]
  folding stability dG unfold: 3.15 ± 0.093 kcal/mol

## SAGGSMADPGKAKAKVVIGGVEFEFDTTVTVADDPDGRKVLIFTFPDGTPVEIPLEDAEKILEVEGSAGGSA [r2_297_TrMRF]
[1]
  folding stability dG unfold: 0.996 ± 0.024 kcal/mol
[2]
  folding stability dG unfold: 1.66 ± 0.03 kcal/mol
[3]
  folding stability dG unfold: 1.43 ± 0.067 kcal/mol

## SAGGSMELKPGDSIEFPENIPLDEIIELAKKIAEEFNFEGIEDIENPSEGFYRIRAITPDGRPIEISAGGSA [r2_168_TrMRF]
[1]
  folding stability dG unfold: -0.147 ± 0.23 kcal/mol
[2]
  folding stability dG unfold: 0.141 ± 0.18 kcal/mol
[3]
  folding stability dG unfold: 0.0617 ± 0.18 kcal/mol

## SAGGSMELYTKSPDGKLFKVKIVNPGNAKDKVLFEAEVFDPKNNKPIGRFTGVVDPKTGKIISIKPSAGGSA [r2_324_TrMRF]
[1]
  folding stability dG unfold: 1.6 ± 0.035 kcal/mol
[2]
  folding stability dG unfold: 1.68 ± 0.083 kcal/mol
[3]
  folding stability dG unfold: 1.64 ± 0.13 kcal/mol

## SAGGSMEVEEFETTDPATGKPYRLRFTYDSETGIPVLEVFAPDGTPLATVPVEPGEAEAARERLGASAGGSA [r2_115_JUSTAS]
[1]
  folding stability dG unfold: 0.0239 ± 0.063 kcal/mol
[2]
  folding stability dG unfold: 1.14 ± 0.085 kcal/mol
[3]
  folding stability dG unfold: 0.767 ± 0.058 kcal/mol

## SAGGSMEVKVVSYDEEKGVLVIEVDEDETVEELVERLRSIPGLKVEVEVVEKDGKLYVVIRVEKKESAGGSA [r2_44_TrROS_Hall]
[1]
  folding stability dG unfold: 3.17 ± 0.13 kcal/mol
[2]
  folding stability dG unfold: 4.27 ± 0.09 kcal/mol
[3]
  folding stability dG unfold: 3.98 ± 0.18 kcal/mol

## SAGGSMEVVVTFPDGSKEVIPEEPLKKLAEELGIPWDEEDPEAQWEAIARALAEKTGKPVEKVEIASAGGSA [r2_83_TrMRF]
[1]
  folding stability dG unfold: 1.97 ± 0.072 kcal/mol
[2]
  folding stability dG unfold: 2.24 ± 0.17 kcal/mol
[3]
  folding stability dG unfold: 2.09 ± 0.093 kcal/mol

## SAGGSMFKVEEVETLENGEVLAKLTVYLDGKPYPATARIYTLPDGRKVAEIYFPDNPNVSLRIPLTSAGGSA [r2_376_TrMRF]
[1]
  folding stability dG unfold: 3.91 ± 0.059 kcal/mol
[2]
  folding stability dG unfold: 4.14 ± 0.024 kcal/mol
[3]
  folding stability dG unfold: 4.1 ± 0.053 kcal/mol

## SAGGSMKFSATVEYDPANNIYTVTVPITRKDTGEVIPVSVPVPGSDLTTAEQLAEEIAEKLEKEGLSAGGSA [r2_221_JUSTAS]
[1]
  folding stability dG unfold: 0.627 ± 0.092 kcal/mol
[2]
  folding stability dG unfold: 0.518 ± 0.14 kcal/mol
[3]
  folding stability dG unfold: 0.621 ± 0.19 kcal/mol

## SAGGSMKITVTVSYSELKEKYPDLTEEELKELAEEIAKEKKKEIIEGNPDISENTEIEVKIEKPAVIESAGG [r13_634_JUSTAS]
[1]
  folding stability dG unfold: 0.76 ± 0.11 kcal/mol
[2]
  folding stability dG unfold: 2.27 ± 0.052 kcal/mol
[3]
  folding stability dG unfold: 1.84 ± 0.12 kcal/mol

## SAGGSMKVFVFEVKVEVEVKLDKDGNLTVEIKKVEVKPVKKIPLSEEELEKLREAKKKGLTLEEILSAGGSA [r2_327_TrROS_Hall]
[1]
  folding stability dG unfold: 2.07 ± 0.11 kcal/mol
[2]
  folding stability dG unfold: 3.26 ± 0.1 kcal/mol
[3]
  folding stability dG unfold: 2.78 ± 0.18 kcal/mol

## SAGGSMKVYEFKSLEEIKKAIENLPPNEKYIVIKKNKNGKLEIIIVSKEEEEELKKKGVDFIIKVKSAGGSA [r2_351_TrROS_Hall]
[1]
  folding stability dG unfold: 0.788 ± 0.089 kcal/mol
[2]
  folding stability dG unfold: 2.21 ± 0.07 kcal/mol
[3]
  folding stability dG unfold: 1.95 ± 0.43 kcal/mol

## SAGGSMLEKEEGDTLVKTVLQPVPEDLSREVLVTTTTKLLPNGSEVTVTVRSPFTGEPLSSSVVLSSAGGSA [r2_412_JUSTAS]
[1]
  folding stability dG unfold: 0.458 ± 0.054 kcal/mol
[2]
  folding stability dG unfold: 0.635 ± 0.13 kcal/mol
[3]
  folding stability dG unfold: 0.602 ± 0.066 kcal/mol

## SAGGSMLSTEPKETDDEIKVTKIYYPEEPIEVTLTTDPDTDLVTATSPSSTATIDAKTGKTTTTPSSSSAGG [r13_416_JUSTAS]
[1]
  folding stability dG unfold: -0.285 ± 0.1 kcal/mol
[2]
  folding stability dG unfold: 0.876 ± 0.039 kcal/mol
[3]
  folding stability dG unfold: 0.545 ± 0.14 kcal/mol

## SAGGSMMKVTIVDKDGKERVFTFPKDMTEEEVLERIKKELEAEGVEVEEVEVERREDGSLVIRVKKSAGGSA [r2_148_TrROS_Hall]
[1]
  folding stability dG unfold: 4.16 ± 0.4 kcal/mol
[2]
  folding stability dG unfold: 3.71 ± 0.064 kcal/mol
[3]
  folding stability dG unfold: 3.93 ± 0.14 kcal/mol

## SAGGSMPFRPLDVKVTVERLPDGTIRITTTLRQPDSPAAVTTEVKEVPLAELVKKRGRPVTAEDLLSAGGSA [r2_180_JUSTAS]
[1]
  folding stability dG unfold: 0.132 ± 0.12 kcal/mol
[2]
  folding stability dG unfold: 1.21 ± 0.096 kcal/mol
[3]
  folding stability dG unfold: 0.858 ± 0.19 kcal/mol

## SAGGSMPPETEVTVTVEEFEEDPSRRLRVTITTPDGTVVTTDLENPGELSPEEEARIAALAAALAASAGGSA [r2_17_JUSTAS]
[1]
  folding stability dG unfold: 0.486 ± 0.026 kcal/mol
[2]
  folding stability dG unfold: 1.96 ± 0.027 kcal/mol
[3]
  folding stability dG unfold: 1.58 ± 0.055 kcal/mol

## SAGGSMPVEIKLLEEEVLPDGVTIKKVKAEDGSEMTVTVTKLPGNTYKVTITNPANGTTSTFTLPESAGGSA [r2_361_JUSTAS]
[1]
  folding stability dG unfold: 0.932 ± 0.035 kcal/mol
[2]
  folding stability dG unfold: 1.73 ± 0.055 kcal/mol
[3]
  folding stability dG unfold: 1.45 ± 0.077 kcal/mol

## SAGGSMRITKIEIEPNPNGDYKITITMTENGHITVEVMNPNGKPKEVEVNMPNGDPEEVVKEAIKASAGGSA [r2_298_TrROS]
[1]
  folding stability dG unfold: 0.686 ± 0.041 kcal/mol
[2]
  folding stability dG unfold: 2.25 ± 0.1 kcal/mol
[3]
  folding stability dG unfold: 1.63 ± 0.083 kcal/mol

## SAGGSMRLVERTFVPVKTFTFLSTFNLIQPPGVPVPTFTTLTVVFTPVFTRLVEVVTEPPGRVVEVLLSAGG [r13_148_JUSTAS]
[1]
  folding stability dG unfold: 3.73 ± 0.15 kcal/mol
[2]
  folding stability dG unfold: 4.33 ± 0.13 kcal/mol
[3]
  folding stability dG unfold: 4.06 ± 0.21 kcal/mol

## SAGGSMSLEEIKKLEIELEKEEGEKLKAEVTVLPDGKLFVRVNGKLFEIDLKTGKIVEVKELPPDESAGGSA [r2_374_TrROS_Hall]
[1]
  folding stability dG unfold: 2.49 ± 0.19 kcal/mol
[2]
  folding stability dG unfold: 2.38 ± 0.057 kcal/mol
[3]
  folding stability dG unfold: 2.47 ± 0.21 kcal/mol

## SAGGSMSPEEKARKLAEELRKKLPPGAKVRIKVEVDGKTYEIEIEPGEEIEFPPGEKVKIVEIEVESAGGSA [r2_391_TrROS_Hall]
[1]
  folding stability dG unfold: 3.12 ± 0.16 kcal/mol
[2]
  folding stability dG unfold: 2.82 ± 0.2 kcal/mol
[3]
  folding stability dG unfold: 2.98 ± 0.3 kcal/mol

## SAGGSMTAPVKVLIKVPPNIPLSDIVKKLSAIPGIGAKPISYDPETGYALVDIGATDPEALKEAIGSAGGSA [r2_305_TrMRF]
[1]
  folding stability dG unfold: 1.67 ± 0.057 kcal/mol
[2]
  folding stability dG unfold: 2 ± 0.029 kcal/mol
[3]
  folding stability dG unfold: 1.9 ± 0.057 kcal/mol

## SAGGSMTFEIVEVTYDEETDEVTVRVRLPNGEVVTLSAEEIEKAIKEGKTITFTLENGEKLEIEVLSAGGSA [r2_301_TrROS_Hall]
[1]
  folding stability dG unfold: 1.49 ± 0.038 kcal/mol
[2]
  folding stability dG unfold: 2.58 ± 0.03 kcal/mol
[3]
  folding stability dG unfold: 2.27 ± 0.084 kcal/mol

## SAGGSMTLEEKSEEDYIIRYVEKGDTYSLIKINPNTGTAEVTTFKPGGVPSKTTYKIPKGKELKVTGSAGGS [r8_11_JUSTAS]
[1]
  folding stability dG unfold: -0.0399 ± 0.11 kcal/mol
[2]
  folding stability dG unfold: 0.726 ± 0.12 kcal/mol
[3]
  folding stability dG unfold: 0.481 ± 0.079 kcal/mol

## SAGGSMTLRLPVPEDVEVVEVTAEVPDPETGKVYVFRSRARVVPYKDGVYLTVDLDPDGRSYGFDPSAGGSA [r2_123_TrMRF]
[1]
  folding stability dG unfold: 1.07 ± 0.096 kcal/mol
[2]
  folding stability dG unfold: 0.56 ± 0.12 kcal/mol
[3]
  folding stability dG unfold: 0.835 ± 0.059 kcal/mol
